Where no end group is shown, it is not given here.
B1: Phage-3286 (peptide)
peptide: PTLRCEPLWMCAGF
notes: Peptide-180 library clone, tested as clonal phage supernatant with the peptide fused to pIII
B2: Phage-3285 (peptide)
peptide: FDTYCKPAWMCEGF
notes: as for B1
B3: Phage-3287 (peptide)
peptide: ESLLCKPKWMCDWL
notes: as for B1
B4: Phage-3291 (peptide)
peptide: PIPRCQPLWMCHGF
notes: as for B1
B5: Phage-3294 (peptide)
peptide: TDVMCVPQWMCDGF
notes: as for B1
B6: Phage-3289 (peptide)
peptide: EDYVCRPTWMCVGF
notes: as for B1
B7: Phage-3284 (peptide)
peptide: ELQRCIPQWMCVGL
notes: as for B1
B8: Phage-3283 (peptide)
peptide: FDHLCIPVWMCKGF
notes: as for B1
B9: Phage-3290 (peptide)
peptide: MDVLCRPEWMCTGF
notes: as for B1
B10: Phage-3281 (peptide)
peptide: VERMCKPEWMCFGF
notes: Peptide-180 library clone, tested as clonal phage supernatant with the peptide fused to pIII of the bacteriophage
B11: Phage-3293 (peptide)
peptide: ETLMCIPNWMCDGF
notes: as for B1
B12: Phage-3292 (peptide)
peptide: YEMRCVPDWMCVGL
notes: as for B1
B13: Phage-3282 (peptide)
peptide: MEHWCVPAWMCSGF
notes: as for B1
B14: Phage-3288 (peptide)
peptide: VDAYCKPAWMCLGF
notes: as for B1
B15: Phage-3276 (peptide)
peptide: EFQMCVPEWMCTGL
notes: Peptide-180 library clone, tested as clonal M13 phage displaying the peptide fused to pIII
B16: Phage-3280 (peptide)
peptide: WNHVCIPTWMCTGM
notes: as for B15
B17: Phage-3275 (peptide)
peptide: FDRICKPAWMCIEF
notes: as for B15
B18: Phage-3272 (peptide)
peptide: INAWCIPAWMCEGF
notes: as for B15
B19: Phage-3274 (peptide)
peptide: MVVRCEPEWMCIGF
notes: as for B15
B20: Phage-3273 (peptide)
peptide: SMGLCKPPWMCAGF
modifications: not fully specified; cysteine pairing not given here
notes: as for B15
B21: Phage-3278 (peptide)
peptide: LPPMCIPQWMCMHF
notes: as for B15
B22: Phage-3277 (peptide)
peptide: PARMCVPAWMCSVL
notes: as for B15
B23: Phage-3279 (peptide)
peptide: GEPWCIPSWMCQGF
notes: as for B15

What follows are binders tested against T1, PSMA Fab (biotinylated (site not stated)) (assay: phage ELISA: clonal phage on biotinylated PSMA Fab captured on neutravidin, anti-M13-HRP detection, blocking buffer alone).
T1 construct: also called Anti-PSMA Fab; 006 PSMA Fab
For B1, the “Phage binding ELISA signal, Anti-PSMA Fab” value was 1.89.
With B2 the “Phage binding ELISA signal, Anti-PSMA Fab” value was 1.89.
With B3 the “Phage binding ELISA signal, Anti-PSMA Fab” value was 1.89.
B4 was tested, and the “Phage binding ELISA signal, Anti-PSMA Fab” value was 1.89.
B5 was tested, and the “Phage binding ELISA signal, Anti-PSMA Fab” value was 1.89.
In the case of B6, the “Phage binding ELISA signal, Anti-PSMA Fab” value is reported as 1.89.
For B7, the “Phage binding ELISA signal, Anti-PSMA Fab” value was 1.89.
B8 was tested, and the “Phage binding ELISA signal, Anti-PSMA Fab” value was 1.89.
B9 was tested, and the “Phage binding ELISA signal, Anti-PSMA Fab” value was 1.89.
B10 was tested, and the “Phage binding ELISA signal, Anti-PSMA Fab” value was 1.9.
B11 was tested, and the “Phage binding ELISA signal, Anti-PSMA Fab” value was 1.89.
In the case of B12, the “Phage binding ELISA signal, Anti-PSMA Fab” value is reported as 1.89.
For B13, the “Phage binding ELISA signal, Anti-PSMA Fab” value was 1.89.
With B14 the “Phage binding ELISA signal, Anti-PSMA Fab” value was 1.89.

The binders below were run against T1, PSMA Fab (assay: phage ELISA on captured PSMA Fab pre-incubated with PSMA antigen as competitor, anti-M13-HRP detection).
Description: (§1) Clonal phage were harvested as crude supernatants and screened via standard ELISAs. […] Prior to the addition of clonal phage. wells were incubated with blocking buffer and PSMA antigen or blocking buffer alone. Without washing or aspirating, clonal phage supernatants were then added to the wells and incubated for a short time. Wells were then washed followed by detection of bound phage using a horse radish conjugated anti-M13 antibody.
In the case of B1, the “Phage binding ELISA signal, Anti-PSMA Fab with PSMA antigen” value is reported as 0.0911.
B2 was tested, and the “Phage binding ELISA signal, Anti-PSMA Fab with PSMA antigen” value was 0.0818.
With B3 the “Phage binding ELISA signal, Anti-PSMA Fab with PSMA antigen” value was 0.0996.
B4 was tested, and the “Phage binding ELISA signal, Anti-PSMA Fab with PSMA antigen” value was 0.085.
With B5 the “Phage binding ELISA signal, Anti-PSMA Fab with PSMA antigen” value was 0.106.
For B6, the “Phage binding ELISA signal, Anti-PSMA Fab with PSMA antigen” value was 0.0755.
In the case of B7, the “Phage binding ELISA signal, Anti-PSMA Fab with PSMA antigen” value is reported as 0.0731.
With B8 the “Phage binding ELISA signal, Anti-PSMA Fab with PSMA antigen” value was 0.0828.
In the case of B9, the “Phage binding ELISA signal, Anti-PSMA Fab with PSMA antigen” value is reported as 0.0971.
In the case of B10, the “Phage binding ELISA signal, Anti-PSMA Fab with PSMA antigen” value is reported as 0.102.
In the case of B11, the “Phage binding ELISA signal, Anti-PSMA Fab with PSMA antigen” value is reported as 0.0837.
With B12 the “Phage binding ELISA signal, Anti-PSMA Fab with PSMA antigen” value was 0.0906.
With B13 the “Phage binding ELISA signal, Anti-PSMA Fab with PSMA antigen” value was 0.264.
In the case of B14, the “Phage binding ELISA signal, Anti-PSMA Fab with PSMA antigen” value is reported as 0.0998.

What follows are binders tested against T2, PSMA Fab (006 PSMA Fab) (biotinylated for capture on neutravidin plates (site not stated)) (assay: phage ELISA: clonal phage supernatant on biotinylated PSMA Fab captured on neutravidin plate, anti-M13-HRP detection).
T2 construct: also called Anti-PSMA Fab; anti-PSMA Fab
For B15, the “Phage binding ELISA signal, Anti-PSMA Fab” value was 1.9.
B16 was tested, and the “Phage binding ELISA signal, Anti-PSMA Fab” value was 1.9.
In the case of B17, the “Phage binding ELISA signal, Anti-PSMA Fab” value is reported as 1.9.
For B18, the “Phage binding ELISA signal, Anti-PSMA Fab” value was 1.9.
In the case of B19, the “Phage binding ELISA signal, Anti-PSMA Fab” value is reported as 1.9.
B20 was tested, and the “Phage binding ELISA signal, Anti-PSMA Fab” value was 1.9.
With B21 the “Phage binding ELISA signal, Anti-PSMA Fab” value was 1.9.
In the case of B22, the “Phage binding ELISA signal, Anti-PSMA Fab” value is reported as 1.9.
For B23, the “Phage binding ELISA signal, Anti-PSMA Fab” value was 1.9.

These binders were tested against T3, PSMA Fab (assay: clonal phage ELISA on biotinylated PSMA Fab captured on neutravidin, anti-M13 HRP detection, wells pre-incubated with saturating PSMA antigen as competitor).
T3 construct: In the panning ELISA the PSMA Fab was biotinylated and captured on neutravidin coated plates; also called Anti-PSMA Fab; 006 PSMA Fab
Description: as §1
With AEHVCRPAWMCTVF [Phage-3313] the “Phage binding ELISA signal, Anti-PSMA Fab with PSMA antigen” value was 0.0585.
For NWKVCEPTWMCEGF [Phage-3308], the “Phage binding ELISA signal, Anti-PSMA Fab with PSMA antigen” value was 0.0575.
In the case of LEFRCVPEWMCVGF [Phage-3311], the “Phage binding ELISA signal, Anti-PSMA Fab with PSMA antigen” value is reported as 0.111.
With LQVMCVPRWMCEGF [Phage-3319] the “Phage binding ELISA signal, Anti-PSMA Fab with PSMA antigen” value was 0.104.
For SSVMCIPQWMCSGF [Phage-3317], the “Phage binding ELISA signal, Anti-PSMA Fab with PSMA antigen” value was 0.0899.
With LLEMCKPHWMCVGF [Phage-3314] the “Phage binding ELISA signal, Anti-PSMA Fab with PSMA antigen” value was 0.085.
With DLRWCIPEWMCIGI [Phage-3312] the “Phage binding ELISA signal, Anti-PSMA Fab with PSMA antigen” value was 0.0809.
In the case of IEKLCKPQWMCEGF [Phage-3310], the “Phage binding ELISA signal, Anti-PSMA Fab with PSMA antigen” value is reported as 0.129.
For VEIACKPQWMCLGF [Phage-3315], the “Phage binding ELISA signal, Anti-PSMA Fab with PSMA antigen” value was 0.0766.
In the case of QEFRCVPEWMCIGL [Phage-3316], the “Phage binding ELISA signal, Anti-PSMA Fab with PSMA antigen” value is reported as 0.0577.
In the case of VGHVCIPSWMCDGM [Phage-3320], the “Phage binding ELISA signal, Anti-PSMA Fab with PSMA antigen” value is reported as 0.0683.
For LPIMCKPQWMCNGF [Phage-3318], the “Phage binding ELISA signal, Anti-PSMA Fab with PSMA antigen” value was 0.08.
For VERACVPAWMCTGF [Phage-3309], the “Phage binding ELISA signal, Anti-PSMA Fab with PSMA antigen” value was 0.0832.

What follows are binders tested against T3, PSMA Fab (assay: clonal phage ELISA on biotinylated PSMA Fab captured on neutravidin, anti-M13 HRP detection, blocking buffer alone).
Description: as §1
For AEHVCRPAWMCTVF [Phage-3313], the “Phage binding ELISA signal, Anti-PSMA Fab” value was 1.86.
In the case of NWKVCEPTWMCEGF [Phage-3308], the “Phage binding ELISA signal, Anti-PSMA Fab” value is reported as 1.87.
LEFRCVPEWMCVGF [Phage-3311] was tested, and the “Phage binding ELISA signal, Anti-PSMA Fab” value was 1.87.
For LQVMCVPRWMCEGF [Phage-3319], the “Phage binding ELISA signal, Anti-PSMA Fab” value was 1.86.
With SSVMCIPQWMCSGF [Phage-3317] the “Phage binding ELISA signal, Anti-PSMA Fab” value was 1.86.
In the case of LLEMCKPHWMCVGF [Phage-3314], the “Phage binding ELISA signal, Anti-PSMA Fab” value is reported as 1.86.
For DLRWCIPEWMCIGI [Phage-3312], the “Phage binding ELISA signal, Anti-PSMA Fab” value was 1.86.
In the case of IEKLCKPQWMCEGF [Phage-3310], the “Phage binding ELISA signal, Anti-PSMA Fab” value is reported as 1.87.
VEIACKPQWMCLGF [Phage-3315] was tested, and the “Phage binding ELISA signal, Anti-PSMA Fab” value was 1.86.
With QEFRCVPEWMCIGL [Phage-3316] the “Phage binding ELISA signal, Anti-PSMA Fab” value was 1.86.
With VGHVCIPSWMCDGM [Phage-3320] the “Phage binding ELISA signal, Anti-PSMA Fab” value was 1.86.
With LPIMCKPQWMCNGF [Phage-3318] the “Phage binding ELISA signal, Anti-PSMA Fab” value was 1.86.
With VERACVPAWMCTGF [Phage-3309] the “Phage binding ELISA signal, Anti-PSMA Fab” value was 1.87.

What follows are binders tested against T2, PSMA Fab (006 PSMA Fab) (assay: phage ELISA as above, wells pre-incubated with PSMA antigen as competitor).
Description: as §1
With B15 the “Phage binding ELISA signal, Anti-PSMA Fab in presence of PSMA” value (“Phage binding ELISA signal … of PSMA” below) was 0.0838.
In the case of B16, the “Phage binding ELISA signal … of PSMA” value is reported as 0.0817.
With B17 the “Phage binding ELISA signal … of PSMA” value was 0.0573.
With B18 the “Phage binding ELISA signal … of PSMA” value was 0.137.
With B19 the “Phage binding ELISA signal … of PSMA” value was 0.0649.
With B20 the “Phage binding ELISA signal … of PSMA” value was 0.0756.
B21 was tested, and the “Phage binding ELISA signal … of PSMA” value was 0.0592.
In the case of B22, the “Phage binding ELISA signal … of PSMA” value is reported as 0.0732.
With B23 the “Phage binding ELISA signal … of PSMA” value was 0.091.

Source: patent US20260242478A1 (published 2026)
